Test [1] concerns the target T1, PKNN2 (N-terminal region of PKN, amino acid sequence 1-474), 35S-labeled, in vitro translated (human, UniProt Q16512 1-474, [35S]methionine label).
T1 construct: also called in vitro translated PKN-N; PKN prepared by in vitro translation
Put plainly: GST pull-down of 35S-labeled in vitro translated PKNN2.

The target of test [2] is T2, LexA DNA binding domain fused to PKNN1 (amino acid sequence 1-540 of PKN), pBTM/PKNN1 (human, UniProt P0A7C2 1-202 (Escherichia coli entry)).
T2 construct: also called LexAbd-PKN; LexA-PKNN1
Put plainly: yeast two-hybrid, lacZ expression in L40 cells.

For test [3], the target named is T3, PKN purified from rat testis cytosol (rat, UniProt Q63433 2-946, limits assumed). Briefly: cell-based or functional assay.
Test [4] addresses catalytic subunit of bovine heart PKA (bovine, UniProt P00517 2-351). Briefly: cell-based or functional assay.
The target of test [5] is T3, PKN purified from rat testis cytosol. Put plainly: apparent Ki from kinase kinetics with δPKC peptide substrate; double-reciprocal plots and secondary plot of Km/Vmax.
Test [6] deals with RhoA^Val14CLVL^- fused to the VP16 activation domain (human, UniProt P06492 413-490; P61586 1-189). Put plainly: yeast two-hybrid with truncated PKN.
Test [7] addresses T4, Gal4 DNA-binding domain fused to PKNN1 (amino acid sequence 1-540 of PKN), pGBT9 (human, UniProt P04386 1-147 (Saccharomyces cerevisiae entry)).
T4 construct: range 1-147; also called Gal4bd-PKN
Briefly: yeast two-hybrid library screen, HIS3 and β-galactosidase.

T1 sequence (Q16512 1-474): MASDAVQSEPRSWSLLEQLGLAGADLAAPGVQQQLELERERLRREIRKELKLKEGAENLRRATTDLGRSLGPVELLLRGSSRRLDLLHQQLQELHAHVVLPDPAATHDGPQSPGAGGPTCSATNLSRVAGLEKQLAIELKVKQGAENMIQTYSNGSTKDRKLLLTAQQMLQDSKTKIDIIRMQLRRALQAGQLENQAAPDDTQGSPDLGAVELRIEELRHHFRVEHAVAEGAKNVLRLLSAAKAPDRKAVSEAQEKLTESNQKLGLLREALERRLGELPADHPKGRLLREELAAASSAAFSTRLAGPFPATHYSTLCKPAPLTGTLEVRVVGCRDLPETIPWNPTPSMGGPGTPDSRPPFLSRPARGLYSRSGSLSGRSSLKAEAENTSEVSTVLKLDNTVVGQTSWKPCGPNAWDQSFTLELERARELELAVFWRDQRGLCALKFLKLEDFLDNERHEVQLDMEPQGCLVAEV
T2 sequence (P0A7C2 other isoform, or with tags, fused parts or gaps limits assumed): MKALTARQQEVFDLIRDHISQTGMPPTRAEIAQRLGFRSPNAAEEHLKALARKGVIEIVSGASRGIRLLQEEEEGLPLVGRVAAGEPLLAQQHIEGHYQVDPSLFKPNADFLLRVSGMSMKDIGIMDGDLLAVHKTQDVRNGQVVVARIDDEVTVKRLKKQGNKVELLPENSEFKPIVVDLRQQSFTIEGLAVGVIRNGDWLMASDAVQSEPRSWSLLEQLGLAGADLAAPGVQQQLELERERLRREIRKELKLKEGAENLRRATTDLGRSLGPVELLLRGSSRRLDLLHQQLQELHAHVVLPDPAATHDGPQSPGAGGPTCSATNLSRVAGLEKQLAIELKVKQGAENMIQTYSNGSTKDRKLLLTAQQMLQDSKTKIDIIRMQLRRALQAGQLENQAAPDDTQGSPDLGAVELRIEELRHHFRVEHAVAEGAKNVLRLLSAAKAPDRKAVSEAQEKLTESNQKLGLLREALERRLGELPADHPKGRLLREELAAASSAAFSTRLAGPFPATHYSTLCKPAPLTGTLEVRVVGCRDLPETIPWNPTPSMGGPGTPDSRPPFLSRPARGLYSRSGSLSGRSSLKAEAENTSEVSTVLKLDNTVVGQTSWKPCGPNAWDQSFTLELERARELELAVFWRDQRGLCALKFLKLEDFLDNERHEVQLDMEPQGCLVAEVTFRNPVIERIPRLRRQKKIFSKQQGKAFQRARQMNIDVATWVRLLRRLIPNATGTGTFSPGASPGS

B1: GST-HuActSkl (604-719) (other, human, UniProt P35609 604-719, looked up)
chain: MDELRTKWDKVKQLVPIRDQSLQEELARQHANERLRRQFAAQANAIGPWIQNKMEEIARSSIQITGALEDQMNQLKQYEHNIINYKNNIDKLEGDHQLIQEALVFDNKHTNYTMEH
notes: not shown: glutathione S-transferase (GST) tag
Turning to B1, the binding result in test [1] is “no binding”.

B2: GST-HuActSkl (837-894) (other, human, UniProt P35609 837-894, looked up)
chain: ILASDKPYILAEELRRELPPDQAQYCIKRMPAYSGPGSVPGALDYAAFSSALYGESDL
notes: as for B1
With B2, the binding result in test [1] is reported as “no binding”.

B3: VP16 transcription activation domain fused to the head-rod domain of NFM, pVP/NFMhr (other)
chain: MSYTLDSLGNPSAYRRVTETRSSFSRVSGSPSSGFRSQSWSRGSPSTVSSSYKRSMLAPRLAYSSAMLSSAESSLDFSQSSSLLNGGSGPGGDYKLSRSNEKEQLQGLNDRFAGYIEKVHYLEQQNKEIEAEIQALRQKQASHAQLGDAYDQEIRELRATLEMVNHEKAQVQLDSDHLEEDIHRLKERFEEEARLRDDTEAAIRALRKDIEEASLVKVELDKKVQSLQDEVAFLRSNHEEEVADLLAQIQASHITVERKDYLKTDISTALKEIRSQLESHSDQNMHQAEEWFKCRYAKLTEAAEQNKEAIRSAKEEIAEYRRQLQSKSIELESVRGTKESLERQLSDIEERHNHDLSSYQDTIQQLENELRGTKWEMARHLREYQDLLNVKMALDIEIAAYRKLLEGEETR
notes: range 1-411
As for B3, the binding result in test [2] is given as “binds”. As for RERLRREIRKELKLK [PKN (39-53) peptide], in test [3], the “IC50 (inhibition of δPKC peptide phosphorylation by PKN)” value is approximately 80 µM. In test [4], the “IC50 (inhibition of Kemptide phosphorylation by PKA)” value is not below 1000 µM. In addition, in test [5], the Ki worked out at 41 µM.

B4: truncated PKN, amino acid sequence 3-135, two-hybrid fusion (other)
chain: SDAVQSEPRSWSLLEQLGLAGADLAAPGVQQQLELERERLRREIRKELKLKEGAENLRRATTDLGRSLGPVELLLRGSSRRLDLLHQQLQELHAHVVLPDPAATHDGPQSPGAGGPTCSATNLSRVAGLEKQL
notes: also called PKN 3-135
As for B4, in test [6], the binding result is recorded as “binds”.

B5: VP16 transcription activation domain fused to the head-rod domain of human NFL (amino acid sequence 1-349), pVP/NFL#21 (other)
chain: MSSFSYEPYYSTSYKRRYVETPRVHISSVRSGYSTARSAYSSYSAPVSSSLSVRRSYSSSSGSLMPSLENLDLSQVAAISNDLKSIRTQEKAQLQDLNDRFASFIERVHELEQQNKVLEAELLVLRQKHSEPSRFRALYEQEIRDLRLAAEDATNEKQALQGEREGLEETLRNLQARYEEEVLSREDAEGRLMEARKGADEAALARAELEKRIDSLMDEISFLKKVHEEEIAELQAQIQYAQISVEMDVTKPDLSAALKDIRAQYEKLAAKNMQNAEEWFKSRFTVLTESAAKNTDAVRAAKDEVSESRRLLKAKTLEIEACRGMNEALEKQLQELEDKQNADISAMQD
notes: range 1-349
With B5, the binding result in test [2] is listed as “binds”.

B6: Gal4 activation domain fusion of library clone #21 (head-rod domain of human NFL, amino acid sequence 1-349), pGAD10-NFL#21 (other, UniProt P07196 1-349, looked up, not shown: large carriers)
chain: B5 chain
notes: range 1-349; also called clone#21 protein; plasmid #21
As to B6, in test [7], the binding result is listed as “binds”.
